Measured values from US20070224180.
Marks after values point to notes of the source that are not given here.

Key:
PACAP(1-27) = biological target: T1, PACAP(1-27)
T1 chain: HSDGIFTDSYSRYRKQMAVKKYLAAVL

[1] = biological target: T2, atrial natriuretic peptide (ANP), P01160
T2 chain: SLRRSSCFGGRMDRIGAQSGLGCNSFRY

[2] = biological target: T3, Fluorescence-quenched Big-ET-1 analogue (17 aa Big-ET)
T3 chain: DIAWFXTPEHVVPYGLG

substance P, P20366 = biological target: T4, substance P, P20366
T4 chain: RPKPQQFFGLM

[3] = biological target: T5, big endothelin (Big ET-1), P05305
T5 chain: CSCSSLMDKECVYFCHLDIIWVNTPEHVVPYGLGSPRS

[4] = biological target: T6, endothelin (ET-1), P05305
T6 chain: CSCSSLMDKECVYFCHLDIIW

B1: His6-tagged IGS5 ectodomain (recombinant soluble His-tagged human IGS5) (protein)
chain: GSHHHHHHSEVCTTPGCVIAAARILQNMDPTTEPCDDFYQFACGGWLRRHVIPETNSRYSIFDVLRDELEVILKAVLENSTAKDRPAVEKARTLYRSCMNQSVIEKRGSQPLLDILEVVGGWPVAMDRWNETVGLEWELERQLALMNSQFNRRVLIDLFIWNDDQNSSRHIIYIDQPTLGMPSREYYFNGGSNRKVREAYLQFMVSVATLLREDANLPRDSCLVQEDMMQVLELETQLAKATVPQEERHDVIALYHRMGLEELQSQFGLKGFNWTLFIQTVLSSVKIKLLPDEEVVVYGIPYLQNLENIIDTYSARTIQNYLVWRLVLDRIGSLSQRFKDTRVNYRKALFGTMVEEVRWRECVGYVNSNMENAVGSLYVREAFPGDSKSMVRELIDKVRTVFVETLDELGWMDEESKKKAQEKAMSIREQIGHPDYILEEMNRRLDEEYSNLNFSEDLYFENSLQNLKVGAQRSLRKLREKVDPNLWIIGAAVVNAFYSPNRNQIVFPAGILQPPFFSKEQPQALNFGGIGMVIGHEITHGFDDNGRNFDKNGNMMDWWSNFSTQHFREQSECMIYQYGNYSWDLADEQNVNGFNTLGENIADNGGVRQAYKAYLKWMAEGGKDQQLPGLDLTHEQLFFINYAQVWCGSYRPEFAIQSIKTDVHSPLKYRVLGSLQNLAAFADTFHCARGTPMHPKERCRVW
PACAP(1-27)
  % Hydrolysis: 69%
[1]
  % Hydrolysis (100 ng IGS5 polypeptide; 0.5 µM substrate; 2 h, 37° C.): 5%
  % Hydrolysis (*500 ng IGS5 polypeptide): 80%
[2]
  % Hydrolysis: 41%
Substance P, P20366
  % Hydrolysis (100 ng IGS5 polypeptide; 0.5 µM substrate; 2 h, 37° C.): 100%
[3]
  % Hydrolysis: (?)****
bradykinin, P01042
Chain of bradykinin, P01042 (P01042 whole entry, looked up): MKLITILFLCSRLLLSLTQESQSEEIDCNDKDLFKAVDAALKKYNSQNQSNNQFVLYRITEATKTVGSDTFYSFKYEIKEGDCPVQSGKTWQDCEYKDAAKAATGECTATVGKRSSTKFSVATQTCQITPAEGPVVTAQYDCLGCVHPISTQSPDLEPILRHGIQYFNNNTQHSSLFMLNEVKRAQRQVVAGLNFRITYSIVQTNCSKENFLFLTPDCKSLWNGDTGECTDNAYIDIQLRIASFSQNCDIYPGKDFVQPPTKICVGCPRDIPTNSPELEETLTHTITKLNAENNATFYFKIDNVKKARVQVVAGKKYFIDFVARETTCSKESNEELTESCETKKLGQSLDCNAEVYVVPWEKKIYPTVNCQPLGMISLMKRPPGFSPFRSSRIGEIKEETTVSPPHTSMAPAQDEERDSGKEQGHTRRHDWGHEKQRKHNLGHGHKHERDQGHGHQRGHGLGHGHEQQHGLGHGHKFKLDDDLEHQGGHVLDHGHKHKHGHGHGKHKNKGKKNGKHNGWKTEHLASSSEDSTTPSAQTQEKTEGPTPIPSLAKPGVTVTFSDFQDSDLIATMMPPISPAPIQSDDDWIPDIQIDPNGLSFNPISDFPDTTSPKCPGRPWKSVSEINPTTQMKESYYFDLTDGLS
  % Hydrolysis (100 ng IGS5 polypeptide; 0.5 µM substrate; 2 h, 37° C.): 100%
  % Hydrolysis (**10 ng IGS5 polypeptide): 62%
[4]
  % Hydrolysis (100 ng IGS5 polypeptide; 0.5 µM substrate; 2 h, 37° C.): < 30%
angiotensin-1, P01019
Chain of angiotensin-1, P01019 (P01019 whole entry, looked up): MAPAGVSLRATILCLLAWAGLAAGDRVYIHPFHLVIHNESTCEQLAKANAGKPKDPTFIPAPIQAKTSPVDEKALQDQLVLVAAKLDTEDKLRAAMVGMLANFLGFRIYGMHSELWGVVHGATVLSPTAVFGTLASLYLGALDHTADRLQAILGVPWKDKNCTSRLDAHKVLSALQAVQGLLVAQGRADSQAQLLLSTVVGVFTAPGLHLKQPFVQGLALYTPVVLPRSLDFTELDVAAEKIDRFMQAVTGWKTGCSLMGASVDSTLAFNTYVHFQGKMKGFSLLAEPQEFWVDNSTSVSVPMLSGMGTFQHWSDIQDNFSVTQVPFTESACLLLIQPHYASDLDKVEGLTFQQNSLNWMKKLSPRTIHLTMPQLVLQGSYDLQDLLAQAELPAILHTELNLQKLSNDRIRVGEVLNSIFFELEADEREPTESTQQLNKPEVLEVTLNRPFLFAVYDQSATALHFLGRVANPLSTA
  % Hydrolysis (100 ng IGS5 polypeptide; 0.5 µM substrate; 2 h, 37° C.): 15%

B2: NEP (recombinantly produced and purified neutral endopeptidase, neprilysin) (protein)
chain: YDDGICKSSDCIKSAARLIQNMDATTEPCTDFFKYACGGWLKRNVIPETSSRYGNFDILRDELEVVLKDVLQEPKTEDIVAVQKAKALYRSCINESAIDSRGGEPLLKLLPDIYGWPVATENWEQKYGASWTAEKAIAQLNSKYGKKVLINLFVGTDDKNSVNHVIHIDQPRLGLPSRDYYECTGIYKEACTAYVDFMISVARLIRQEERLPIDENQLALEMNKVMELEKEIANATAKPEDRNDPMLLYNKMTLAQIQNNFSLEINGKPFSWLNFTNEIMSTVNISITNEEDVVVYAPEYLTKLKPILTKYSARDLQNLMSWRFIMDLVSSLSRTYKESRNAFRKALYGTTSETATWRRCANYVNGNMENAVGRLYVEAAFAGESKHVVEDLIAQIREVFIQTLDDLTWMDAETKKRAEEKALAIKERIGYPDDIVSNDNKLNNEYLELNYKEDEYFENIIQNLKFSQSKQLKKLREKVDKDEWISGAAVVNAFYSSGRNQIVFPAGILQPPFFSAQQSNSLNYGGIGMVIGHEITHGFDDNGRNFNKDGDLVDWWTQQSASNFKEQSQCMVYQYGNFSWDLAGGQHLNGINTLGENIADNGGLGQAYRAYQNYIKKNGEEKLLPGLDLNHKQLFFLNFAQVWCGTYRPEYAVNSIKTDVHSPGNFRIIGTLQNSAEFSEAFHCRKNSYMNPEKKCRVW
PACAP(1-27)
  cleavage of PACAP(1-27), HPLC: None of the aforementioned enzymes was able to cleave PACAP(1-27) under the assay conditions as described above for IGS5

B3: ECE-1 (recombinantly produced endothelin converting enzyme-1) (protein)
chain: QYQTRSPSVCLSEACVSVTSSILSSMDPTVDPCHDFFSYACGGWIKANPVPDGHSRWGTFSNLWEHNQAIIKHLLENSTASVSEAERKAQVYYRACMNETRIEELRAKPLMELIERLGGWNITGPWAKDNFQDTLQVVTAHYRTSPFFSVYVSADSKNSNSNVIQVDQSGLGLPSRDYYLNKTENEKVLTGYLNYMVQLGKLLGGGDEEAIRPQMQQILDFETALANITIPQEKRRDEELIYHKVTAAELQTLAPAINWLPFLNTIFYPVEINESEPIVVYDKEYLEQISTLINTTDRCLLNNYMIWNLVRKTSSFLDQRFQDADEKFMEVMYGTKKTCLPRWKFCVSDTENNLGFALGPMFVKATFAEDSKSIATEIILEIKKAFEESLSTLKWMDEETRKSAKEKADAIYNMIGYPNFIMDPKELDKVFNDYTAVPDLYFENAMRFFNFSWRVTADQLRKAPNRDQWSMTPPMVNAYYSPTKNEIVFPAGILQAPFYTRSSPKALNFGGIGVVVGHELTHAFDDQGREYDKDGNLRPWWKNSSVEAFKRQTECMVEQYSNYSVNGEPVNGRHTLGENIADNGGLKAAYRAYQNWVKKNGAEHSLPTLGLTNNQLFFLGFAQVWCSVRTPESSHEGLITDPHSPSRFRVIGSLSNSKEFSEHFRCPPGSPMNPPHKCEVW
PACAP(1-27)
  cleavage of PACAP(1-27), HPLC: None of the aforementioned enzymes was able to cleave PACAP(1-27) under the assay conditions as described above for IGS5

B4: XCE/DINE (recombinantly produced) (protein)
chain: KYLGPVAAGGGACPEGCPERKAFARAARFLAANLDASIDPCQDFYSFACGGWLRRHAIPDDKLTYGTIAAIGEQNEERLRRLLARPGGGPGGAAQRKVRAFFRSCLDMREIERLGPRPMLEVIEDCGGWDLGGAEERPGVAARWDLNRLLYKAQGVYSAAALFSLTVSLDDRNSSRYVIRIDQDGLTLPERTLYLAQDEDSEKILAAYRVFMERVLSLLGADAVEQKAQEILQVEQQLANITVSEHDDLRRDVSSMYNKVTLGQLQKITPHLRWKWLLDQIFQEDFSEEEEVVLLATDYMQQVSQLIRSTPHRVLHNYLVWRVVVVLSEHLSPPFREALHELAQEMEGSDKPQELARVCLGQANRHFGMALGALFVHEHFSAASKAKVQQLVEDIKYILGQRLEELDWMDAETRAAARAKLQYMMVMVGYPDFLLKPDAVDKEYEFEVHEKTYFKNILNSIRFSIQLSVKKIRQEVDKSTWLLPPQALNAYYLPNKNQMVFPAGILQPTLYDPDFPQSLNYGGIGTIIGHELTHGYDDWGGQYDRSGNLLHWWTEASYSRFLRKAECIVRLYDNFTVYNQRVNGKHTLGENIADMGGLKLAYHAYQKWVREHGPEHPLPRLKYTHDQLFFIAFAQNWCIKRRSQSIYLQVLTDKHAPEHYRVLGSVSQFEEFGRAFHCPKDSPMNPAHKCSVW
PACAP(1-27)
  cleavage of PACAP(1-27), HPLC: None of the aforementioned enzymes was able to cleave PACAP(1-27) under the assay conditions as described above for IGS5
